In US20240400654A1 one finds OD450 nm and Ratio OD(Variant)/OD(WT) data, which are given here for 37 molecules.

Numbering of substitutions follows the chain as printed. Names may count otherwise. “And” between values parts separate entries of the source, which are not always exact repeats. Equal values may be shown once.

This experiment has as its target HRgpA-6H (Porphyromonas gingivalis) (UniProt P28784). Kind of experiment: ELISA, coated HRgpA-6H.
Chain of UniProt P28784 (P28784 228-860 limits assumed): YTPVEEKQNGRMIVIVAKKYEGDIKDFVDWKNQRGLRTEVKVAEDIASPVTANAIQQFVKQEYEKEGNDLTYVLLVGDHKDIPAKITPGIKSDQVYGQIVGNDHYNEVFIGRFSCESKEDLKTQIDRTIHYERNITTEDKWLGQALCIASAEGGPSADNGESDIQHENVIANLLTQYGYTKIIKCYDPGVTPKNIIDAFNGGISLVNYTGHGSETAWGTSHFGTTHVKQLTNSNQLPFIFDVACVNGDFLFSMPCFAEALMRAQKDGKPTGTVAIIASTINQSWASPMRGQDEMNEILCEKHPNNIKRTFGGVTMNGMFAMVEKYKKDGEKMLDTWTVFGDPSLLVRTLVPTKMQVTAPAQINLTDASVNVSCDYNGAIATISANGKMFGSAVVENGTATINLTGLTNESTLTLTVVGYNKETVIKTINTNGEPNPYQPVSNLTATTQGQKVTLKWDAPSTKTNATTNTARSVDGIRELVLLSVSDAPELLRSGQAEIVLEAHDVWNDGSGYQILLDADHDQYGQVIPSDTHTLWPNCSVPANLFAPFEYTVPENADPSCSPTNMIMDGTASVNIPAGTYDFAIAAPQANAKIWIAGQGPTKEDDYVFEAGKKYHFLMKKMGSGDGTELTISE

B1: KB001 mouse Fab VL S27V (Fab, V domains shown)
VH: EVQLKQSGPGLVAPSQSLSITCTVSGFSLSIYSVHWVRQPPGKGLEWLGMIWGGGSSDYNSALKSRLSISKDNSKSQVFLKMNSLQTDDTAMYYCARNGNFYAMDYWGQGTSVTVSS
VL: QIVLTQSPAIMSASLGERVTMTCTASVSVSSSFLHWYQQKPGSSPQLWIYSTSNLASGVPARFSGSGSGTSYSLTISSMEAEDAATYYCHQYHHSPYIYTFGGGTKLEIK
For B1, the OD450 nm is 0.645 and 0.646; the Ratio OD(Variant)/OD(WT) was 0.859 and 0.861.

B2: KB001 mouse Fab VL S31Q (Fab, V domains shown)
VH: B1 VH
VL: B1 VL with V27S, S31Q
Take B2: the OD450 nm was 0.83 and 0.745 and 0.782; the Ratio OD(Variant)/OD(WT) is 0.982 and 0.882 and 0.925.

B3: KB001 mouse Fab VL S28D (Fab, V domains shown)
VH: B1 VH
VL: B1 VL with V27S, S28D
As to B3, the OD450 nm is 0.745 and 0.722; the Ratio OD(Variant)/OD(WT) was 0.993 and 0.962.

B4: KB001 mouse Fab VL S31D (Fab, V domains shown)
VH: B1 VH
VL: B1 VL with V27S, S31D
On to B4, for which the OD450 nm came out at 0.762 and the Ratio OD(Variant)/OD(WT) was determined as 0.902.

B5: KB001 mouse Fab VL L34M (Fab, V domains shown)
VH: B1 VH
VL: B1 VL with V27S, L34M
For B5, the OD450 nm was 0.736 and 0.741 and 0.714; the Ratio OD(Variant)/OD(WT) was 0.971 and 0.978 and 0.911.

B6: KB001 mouse Fab VL S30D (Fab, V domains shown)
VH: B1 VH
VL: B1 VL with V27S, S30D
As to B6, the OD450 nm was 0.702 and 0.723; the Ratio OD(Variant)/OD(WT) was 0.814 and 0.839.

B7: KB001 mouse Fab VL T52R (Fab, V domains shown)
VH: B1 VH
VL: B1 VL with V27S, T52R
On to B7, for which the OD450 nm was 0.724 and 0.681 and 0.685; the Ratio OD(Variant)/OD(WT) was 0.919 and 0.865 and 0.87.

B8: KB001 mouse Fab VL F33H (Fab, V domains shown)
VH: B1 VH
VL: B1 VL with V27S, F33H
On to B8, for which the OD450 nm was found to be 0.736 and the Ratio OD(Variant)/OD(WT) amounted to 0.971.

B9: KB001 mouse Fab VL S32Q (Fab, V domains shown)
VH: B1 VH
VL: B1 VL with V27S, S32Q
Regarding B9, the OD450 nm came to 0.716 and the Ratio OD(Variant)/OD(WT) came out at 0.847.

B10: KB001 mouse Fab VL S28H (Fab, V domains shown)
VH: B1 VH
VL: B1 VL with V27S, S28H
For B10, the OD450 nm turned out to be 0.719 and the Ratio OD(Variant)/OD(WT) was 0.958.

B11: KB001 mouse Fab VL F33N (Fab, V domains shown)
VH: B1 VH
VL: B1 VL with V27S, F33N
For the molecule B11, the OD450 nm was 0.64 and the Ratio OD(Variant)/OD(WT) amounted to 0.844.

B12: KB001 mouse Fab VL T52K (Fab, V domains shown)
VH: B1 VH
VL: B1 VL with V27S, T52K
In the case of B12, the OD450 nm stood at 0.681 and the Ratio OD(Variant)/OD(WT) came out at 0.865.

B13: KB001 mouse Fab VL S28M (Fab, V domains shown)
VH: B1 VH
VL: B1 VL with V27S, S28M
On to B13, for which the OD450 nm is 0.706 and 0.675; the Ratio OD(Variant)/OD(WT) is 0.941 and 0.899.

B14: KB001 mouse Fab VL S30H (Fab, V domains shown)
VH: B1 VH
VL: B1 VL with V27S, S30H
With B14, the OD450 nm is 0.808 and 0.747; the Ratio OD(Variant)/OD(WT) was 0.937 and 0.867.

B15: KB001 mouse Fab VL S32G (Fab, V domains shown)
VH: B1 VH
VL: B1 VL with V27S, S32G
Regarding B15, the OD450 nm stood at 0.759 and the Ratio OD(Variant)/OD(WT) came out at 0.898.

B16: KB001 mouse Fab VL S30T (Fab, V domains shown)
VH: B1 VH
VL: B1 VL with V27S, S30T
As for B16, the OD450 nm is 0.838 and 0.817; the Ratio OD(Variant)/OD(WT) was 0.972 and 0.948.

B17: KB001 mouse Fab VL S30W (Fab, V domains shown)
VH: B1 VH
VL: B1 VL with V27S, S30W
For the molecule B17, the OD450 nm turned out to be 0.823 and the Ratio OD(Variant)/OD(WT) was 0.955.

B18: KB001 mouse Fab VL S32W (Fab, V domains shown)
VH: B1 VH
VL: B1 VL with V27S, S32W
Consider B18, for which the OD450 nm turned out to be 0.649 and the Ratio OD(Variant)/OD(WT) worked out at 0.856.

B19: KB001 mouse Fab VL S27W (Fab, V domains shown)
VH: B1 VH
VL: B1 VL with V27W
B19: the OD450 nm came to 0.601 and the Ratio OD(Variant)/OD(WT) came out at 0.801.

B20: KB001 mouse Fab VL S30K (Fab, V domains shown)
VH: B1 VH
VL: B1 VL with V27S, S30K
As for B20, the OD450 nm is 0.77 and the Ratio OD(Variant)/OD(WT) amounted to 0.893.

B21: KB001 mouse Fab VL S31W (Fab, V domains shown)
VH: B1 VH
VL: B1 VL with V27S, S31W
Regarding B21, the OD450 nm amounted to 0.808 and the Ratio OD(Variant)/OD(WT) turned out to be 0.956.

B22: KB001 mouse Fab VL L34I (Fab, V domains shown)
VH: B1 VH
VL: B1 VL with V27S, L34I
As for B22, the OD450 nm came out at 0.67 and the Ratio OD(Variant)/OD(WT) is 0.884.

B23: KB001 mouse Fab VL S30M (Fab, V domains shown)
VH: B1 VH
VL: B1 VL with V27S, S30M
Turning to B23, the OD450 nm was 0.818 and the Ratio OD(Variant)/OD(WT) was found to be 0.949.

B24: KB001 mouse Fab VL S32Y (Fab, V domains shown)
VH: B1 VH
VL: B1 VL with V27S, S32Y
As for B24, the OD450 nm was 0.753 and the Ratio OD(Variant)/OD(WT) stood at 0.891.

B25: KB001 mouse Fab VL S32A (Fab, V domains shown)
VH: B1 VH
VL: B1 VL with V27S, S32A
For the molecule B25, the OD450 nm is 0.748 and 0.805; the Ratio OD(Variant)/OD(WT) was 0.885 and 0.953.

B26: KB001 mouse Fab VL S27M (Fab, V domains shown)
VH: B1 VH
VL: B1 VL with V27M
Turning to B26, the OD450 nm worked out at 0.709 and the Ratio OD(Variant)/OD(WT) was determined as 0.945.

B27: KB001 mouse Fab VL S30R (Fab, V domains shown)
VH: B1 VH
VL: B1 VL with V27S, S30R
For the molecule B27, the OD450 nm was 0.778 and 0.793 and 0.802; the Ratio OD(Variant)/OD(WT) was 0.903 and 0.92 and 0.93.

B28: KB001 mouse Fab VL S30E (Fab, V domains shown)
VH: B1 VH
VL: B1 VL with V27S, S30E
B28: the OD450 nm worked out at 0.813 and the Ratio OD(Variant)/OD(WT) stood at 0.943.

B29: KB001 mouse Fab VL S27K/S68Y (Fab, V domains shown)
VH: B1 VH
VL: B1 VL with V27K, S68Y
For the molecule B29, the OD450 nm turned out to be 0.736 and the Ratio OD(Variant)/OD(WT) is 0.981.

B30: KB001 mouse Fab VL S30L (Fab, V domains shown)
VH: B1 VH
VL: B1 VL with V27S, S30L
Consider B30, for which the OD450 nm is 0.813 and the Ratio OD(Variant)/OD(WT) was found to be 0.943.

B31: KB001 mouse Fab VL V29L (Fab, V domains shown)
VH: B1 VH
VL: B1 VL with V27S, V29L
Turning to B31, the OD450 nm came to 0.751 and the Ratio OD(Variant)/OD(WT) amounted to 0.871.

B32: KB001 mouse Fab VL S30I (Fab, V domains shown)
VH: B1 VH
VL: B1 VL with V27S, S30I
On to B32, for which the OD450 nm was 0.86 and the Ratio OD(Variant)/OD(WT) is 0.998.

B33: KB001 mouse Fab VL S32P (Fab, V domains shown)
VH: B1 VH
VL: B1 VL with V27S, S32P
On to B33, for which the OD450 nm turned out to be 0.744 and the Ratio OD(Variant)/OD(WT) is 0.88.

B34: KB001 mouse Fab VL S28T/S12R (Fab, V domains shown)
VH: B1 VH
VL: B1 VL with S12R, V27S, S28T
Consider B34, for which the OD450 nm is 0.747 and the Ratio OD(Variant)/OD(WT) amounted to 0.995.

B35: KB001 mouse Fab VL V29I (Fab, V domains shown)
VH: B1 VH
VL: B1 VL with V27S, V29I
In the case of B35, the OD450 nm stood at 0.853 and the Ratio OD(Variant)/OD(WT) was 0.99.

B36: KB001 mouse Fab VL S28N (Fab, V domains shown)
VH: B1 VH
VL: B1 VL with V27S, S28N
For B36, the OD450 nm was 0.743 and the Ratio OD(Variant)/OD(WT) was found to be 0.99.

B37: KB001 mouse Fab VL L34V (Fab, V domains shown)
VH: B1 VH
VL: B1 VL with V27S, L34V
Take B37: the OD450 nm was 0.641 and 0.634; the Ratio OD(Variant)/OD(WT) is 0.846 and 0.836.
